Measurements reported in patent US20100240080A1.

Tests used:
[1] = tested on: T1, SEQ ID NO: 47 (ALRRFSLGEK), modified as described
T1 sequence: ALRRFSLGEK

[2] = target: Abl 1 substrate, SEQ ID NO: 3 (…), modified with 7-hydroxycoumarin and 5-FAM; experiment: cell-based or functional assay
[3] = target: Akt 1 substrate, SEQ ID NO: 59 (…), modified with 7-hydroxycoumarin and 5-FAM; experiment: cell-based or functional assay
[4] = tested on: T2, Akt 1 substrate, SEQ ID NO: 59 (ARPRAFSVGK), modified with 7-hydroxycoumarin and 5-FAM
T2 sequence: ARPRAFSVGK

[5] = tested on: T3, SEQ ID NO: 100 (RGGLFS*TTPGGTK), labelled phosphopeptide
T3 sequence: RGGLFSTTPGGTK

[6] = tested on: T4, SEQ ID NO: 109 (ARPRAFS*VGK), labelled phosphopeptide
T4 sequence: ARPRAFSVGK

[7] = tested on: T5, SEQ ID NO: 110 (RRRQFS*LRRKAK), labelled phosphopeptide
T5 sequence: RRRQFSLRRKAK

[8] = tested on: T6, SEQ ID NO: 103 (GDQDYLS*LDK), labelled phosphopeptide
T6 sequence: GDQDYLSLDK

[9] = tested on: T7, SEQ ID NO: 113 (RPRTFSS*LAEGK), labelled phosphopeptide
T7 sequence: RPRTFSSLAEGK

[10] = target: T8, SEQ ID NO: 31 (EEEIY*GVIEK), labelled phosphopeptide
T8 chain: EEEIYGVIEK

Molecule: PKA
- % phosphorylation by PKA (kinase titration, FRET/chymotrypsin read-out) [1]: SEQ ID NO: 47 modified as described, is the best substrate for the kinase because it yielded maximal phosphorylation even at low kinase concentrations

Molecule: Abl 1 kinase (from UniProt P00519 1-1130) (enzyme)
- % of substrate phosphorylated in the 0% inhibition control (1.5 ng Abl 1/well, 10 µM ATP) [2]: 30%

Molecule: Akt 1 kinase (from UniProt P31749 1-480) (enzyme)
- % of substrate phosphorylated in the 0% inhibition control (42 ng Akt 1/well, 10.5 µM ATP) [3]: 30%

Molecule: Akt 1 kinase
- % Phosphorylation at 5.0 ng Akt 1 kinase per well [4]: 8%
- % Phosphorylation at 10.0 ng Akt 1 kinase per well [4]: 12%
- % Phosphorylation at 25.0 ng Akt 1 kinase per well [4]: 20%
- % Phosphorylation at 37.5 ng Akt 1 kinase per well [4]: 28%
- % Phosphorylation at 42.0 ng Akt 1 kinase per well [4]: 30%
- % Phosphorylation at 50.0 ng Akt 1 kinase per well [4]: 33%
- % Phosphorylation at 75.0 ng Akt 1 kinase per well [4]: 38%
- % Phosphorylation at 100.0 ng Akt 1 kinase per well [4]: 43%
- % Phosphorylation at 150.0 ng Akt 1 kinase per well [4]: 50%

Molecule: PP2C
- phosphatase substrate screen (dephosphorylation, FRET/chymotrypsin read-out) [5]: SEQ ID NOs: 100, 109, and 110 were substrates of PP2C
- phosphatase substrate screen (dephosphorylation, FRET/chymotrypsin read-out) [6]: SEQ ID NOs: 100, 109, and 110 were substrates of PP2C
- phosphatase substrate screen (dephosphorylation, FRET/chymotrypsin read-out) [7]: SEQ ID NOs: 100, 109, and 110 were substrates of PP2C

Molecule: PP2A
- phosphatase substrate screen (dephosphorylation, FRET/chymotrypsin read-out) [8]: SEQ ID NOs: 103, 109, 110, and 113 were substrates of PP2A
- phosphatase substrate screen (dephosphorylation, FRET/chymotrypsin read-out) [6]: SEQ ID NOs: 103, 109, 110, and 113 were substrates of PP2A
- phosphatase substrate screen (dephosphorylation, FRET/chymotrypsin read-out) [7]: SEQ ID NOs: 103, 109, 110, and 113 were substrates of PP2A
- phosphatase substrate screen (dephosphorylation, FRET/chymotrypsin read-out) [9]: SEQ ID NOs: 103, 109, 110, and 113 were substrates of PP2A

Molecule: PP2B
- phosphatase substrate screen (dephosphorylation, FRET/chymotrypsin read-out) [5]: SEQ ID NOs: 100 and 110 were substrates of PP2B
- phosphatase substrate screen (dephosphorylation, FRET/chymotrypsin read-out) [7]: SEQ ID NOs: 100 and 110 were substrates of PP2B

B1: PTP1B (protein)
chain: MEMEKEFEQIDKSGSWAAIYQDIRHEASDFPCRVAKLPKNKNRNRYRDVSPFDHSRIKLHQEDNDYINASLIKMEEAQRSYILTQGPLPNTCGHFWEMVWEQKSRGVVMLNRVMEKGSLKCAQYWPQKEEKEMIFEDTNLKLTLISEDIKSYYTVRQLELENLTTQETREILHFHYTTWPDFGVPESPASFLNFLFKVRESGSLSPEHGPVVVHCSAGIGRSGTFCLADTCLLLMDKRKDPSSVDIKKVLLEMRKFRMGLIQTADQLRFSYLAVIEGAKFIMGDSSVQDQWKELSHEDLEPPPEHIPPPPRPPKRILEPHN
- phosphatase substrate screen (dephosphorylation, FRET/chymotrypsin read-out) [10]: SEQ ID NO: 31 was a substrate for both PTP1B and LAR

B2: LAR (protein)
chain: KRKRTHSPSSKDEQSIGLKDSLLAHSSDPVEMRRLNYQTPGMRDHPPIPITDLADNIERLKANDGLKFSQEYESIDPGQQFTWENSNLEVNKPKNRYANVIAYDHSRVILTSIDGVPGSDYINANYIDGYRKQNAYIATQGPLPETMGDFWRMVWEQRTATVVMMTRLEEKSRVKCDQYWPARGTETCGLIQVTLLDTVELATYTVRTFALHKSGSSEKRELRQFQFMAWPDHGVPEYPTPILAFLRRVKACNPLDAGPMVVHCSAGVGRTGCFIVIDAMLERMKHEKTVDIYGHVTCMRSQRNYMVQTEDQYVFIHEALLEAATCGHTEVPARNLYAH
- phosphatase substrate screen (dephosphorylation, FRET/chymotrypsin read-out) [10]: SEQ ID NO: 31 was a substrate for both PTP1B and LAR
